Residue numbers refer to the chain shown, from its start. In names and notes the source's numbering stands. No end group written: not given here. *: point of attachment. Farnesyl = CC(C)=CCC/C(C)=C/CC/C(C)=C/C*

Usually Kd stands for the free concentration of one partner at which half of the binding sites on the other are occupied at equilibrium, for simple one-to-one binding. Low readings indicate a tighter complex, high ones a looser complex.

Test [1] has as its target AMCA-labeled C-terminal peptide of mouse PDE6A, S-farnesylated and carboxymethylated (mouse). The test is described as follows: FRET or BRET. Background: In BRET a luciferase serves as donor, and the signal depends on an acceptor being close.
Test [2] deals with FITC-labeled C-terminal peptide of HSP90a. The test is described as follows: fluorescence polarisation. Background: Fluorescence polarisation rises when a labelled molecule tumbles more slowly, as on binding a larger partner.
In test [3] the target is PDE6 γ-subunit with a single Cys at position 35, labeled with 3-(bromo acetyl)-7-diethyl aminocoumarine (UniProt P04972). Briefly: other fluorescence titration.
Test [4] concerns the target T1, human aryl hydrocarbon receptor-interacting protein-like 1 (hAIPL1), full length, His6-tagged (human, UniProt Q9NZN9 1-384).
T1 sequence (looked up): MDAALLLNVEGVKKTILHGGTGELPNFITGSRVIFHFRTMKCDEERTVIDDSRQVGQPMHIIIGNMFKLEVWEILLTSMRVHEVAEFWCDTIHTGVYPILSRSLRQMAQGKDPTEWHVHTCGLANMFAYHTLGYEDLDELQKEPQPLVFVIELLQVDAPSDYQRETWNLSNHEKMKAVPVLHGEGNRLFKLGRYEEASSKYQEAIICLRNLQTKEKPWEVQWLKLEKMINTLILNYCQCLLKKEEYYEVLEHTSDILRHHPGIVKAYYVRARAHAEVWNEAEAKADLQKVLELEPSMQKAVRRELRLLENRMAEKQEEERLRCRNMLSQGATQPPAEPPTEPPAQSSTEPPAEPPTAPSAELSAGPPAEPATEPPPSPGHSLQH
Briefly: other fluorescence titration.

The target of test [5] is T2, hAIPL1 1–316 lacking the proline-rich domain, His6-tagged (human, UniProt Q9NZN9 1-316).
T2 sequence (looked up): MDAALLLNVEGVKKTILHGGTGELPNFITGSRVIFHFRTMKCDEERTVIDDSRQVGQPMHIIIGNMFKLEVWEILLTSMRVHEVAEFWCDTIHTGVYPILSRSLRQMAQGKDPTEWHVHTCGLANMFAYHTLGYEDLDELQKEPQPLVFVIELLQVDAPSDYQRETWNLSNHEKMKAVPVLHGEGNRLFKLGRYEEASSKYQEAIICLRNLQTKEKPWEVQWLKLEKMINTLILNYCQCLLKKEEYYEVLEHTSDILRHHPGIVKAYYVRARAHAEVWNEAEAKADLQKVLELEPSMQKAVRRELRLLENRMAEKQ
Briefly: FRET or BRET.

Test [6] concerns the target T3, hAIPL1 P376S mutant, His6-tagged (human, UniProt Q9NZN9 1-384, P376S).
T3 sequence (looked up): T1 sequence (looked up) with P376S
The test is described as follows: FRET or BRET.

The target in test [7] is T1, human aryl hydrocarbon …. Briefly: FRET or BRET.
Test [8] has as its target T4, hAIPL1 R302L mutant, His6-tagged (human, UniProt Q9NZN9 1-384, R302L).
T4 sequence (looked up): T1 sequence (looked up) with R302L
Briefly: FRET or BRET.

For the molecule “hAIPL1 P351∆12 mutant, His6-tagged (from UniProt Q9NZN9 1-384) (natural protein)”, the figures for the dissociation constant Kd in test [1], in test [2] and in test [3] were 140 nM, 32800 nM and 1380 nM, respectively.

B1: PDE6 γ-subunit with a single Cys at position 68, labeled with 3-(bromo acetyl)-7-diethyl aminocoumarine (natural protein, UniProt P04972 1-87, looked up)
chain: MNLEPPKAEIRSATRVMGGPVTPRKGPPKFKQRQTRQFKSKPPKKGVQGFGDDIPGMEGLGTDITVICPWEAFNHLELHELAQYGII
modifications: 3-(bromo acetyl)-7-diethyl aminocoumarine (BC) on Cys68
For the molecule B1, the affinity in test [4], expressed as Kd, was 2500 nM.

B2: hAIPL1 1–316 lacking the proline-rich domain, His6-tagged (domain or fragment)
chain: T2 sequence (looked up)
B2: the figures for the Kd in test [2] and in test [3] were 20800 nM and 730 nM, respectively.
For GAPASKSC(Farnesyl) (also: Cys carboxymethylated, AMCA-X conjugated) [AMCA-labeled C-terminal peptide of mouse PDE6A, S-farnesylated and carboxymethylated], the Kd was 240 nM in test [5], 200 nM in test [6], 110 nM in test [7] and 160 nM in test [8].

B3: human aryl hydrocarbon receptor-interacting protein-like 1 (hAIPL1), full length, His6-tagged (natural protein)
chain: T1 sequence (looked up)
For B3, the Kd in test [2] is 20800 nM; in test [3], 990 nM.

B4: hAIPL1 P376S mutant, His6-tagged (natural protein)
chain: T1 sequence (looked up) with P376S
Take B4: the Kd in test [2] came out at 23000 nM; in test [3] it was 950 nM.

B5: hAIPL1 R302L mutant, His6-tagged (natural protein)
chain: T1 sequence (looked up) with R302L
B5: the results for the Kd in test [2] and in test [3] were 27200 nM and 810 nM, respectively.

The values above are taken from article PMC6309207 (Journal of neurochemistry, 2015).
